Data from article PMC6385209.

Assay: mouse vaccination, whole-cell ELISA for CPS14-specific IgG
Settings: glycan gained; control: unglycosylated ComP

## ComP: CPS14-ComP bioconjugate
  other: immunogenicity: increases
